From PMC5703901, “Rational design of cholesterol oxidase for efficient bioresolution of cholestane skeleton substrates” (Scientific Reports, 2017)
Where a chain is given by its changes, count along the chain named. In names and notes the source's numbering stands.

B1: PsChO (Pimelobacter simplex; V115C) (protein)
chain: VLVIGTGYGGAVAALRLAQAGVQVEMIEMGMSWDTPGSDGKIFAKVTSPDKRAYWLRTKTKAPCSNFFGFPIDATIPKYTGILDAEEFAGITVYQGRGVGGGSLVNGGMAVTPKQSRFSSILPSVDAAEMYATYYPRANAGLGVGSIDPAWFETAECYKYARVGRKHAQRSGFAWTFVPDVYDWNYMKAEQAGTVTRSALDGQVMYGNDHGKKSLVQTYLAQALATGRVNVSTLHQVTAVAPRSGGGYTVSIDQLDTSGNVVGTKSVTAGKVFFAAGSVGTSKLLTKLKATGSLPALNNEIGKGWGDNGNVMCGRANHMWDPTGSLQSTIPCSGIDNWDAGGAFAEVAPLPTGIETYASLYLSITNTTRRAEFSWNAAANKVDLSWQTAWKQDSINMAKTIFDKINSKEGTIYRTDLFGAYKVWQDGLTYHPLGGAVLNKATDNYGRLHGYNGLYVIDGALIPGNTTVNPFVTITALAERNIDNILANDI
notes: wild-type gene in pET28a(+), E. coli BL21(DE3), His6-tagged, Ni-NTA purified; noncovalent FAD type; catalytic H431, E346, N469
B2: PsChO (Pimelobacter simplex) (protein)
chain: B1 chain with C64V
notes: as for B1
B3: PsChO (Pimelobacter simplex; F121V) (protein)
chain: B1 chain with C64V, F70V
notes: as for B1

substrate: C[C@]12CC[C@H](O)CC1=CC[C@@H]1[C@@H]2CC[C@]2(C)C(=O)CC[C@@H]12; assay: peroxidase-coupled 4-aminoantipyrine/phenol H2O2 assay, OD500; assay type: biochemical, Pimelobacter simplex; conditions: 25 mM phosphate pH 7.5, isopropanol and Triton X-100, temperature not stated for kinetics
From the text: (§1) peroxidase-coupled 4-aminoantipyrine/phenol H2O2 assay, OD500 on PsChO

Protein	Km [µM]	kcat [s⁻¹]	kcat/Km [M⁻¹ s⁻¹]
B1	318.81 ± 3.25	9.56 ± 0.34	30000 ± 500
B2	341.21 ± 3.79	6.82 ± 0.14	20000 ± 400
B3	273.52 ± 2.13	13.7 ± 0.2	50000 ± 600

substrate: [H][C@@]12CC=C3C[C@@H](O)CC[C@]3(C)[C@@]1([H])CC[C@@]1(C)[C@@]2([H])CC[C@]1([H])[C@H](C)CC[C@@H](CC)C(C)C; assay: as above; assay type: biochemical, Pimelobacter simplex; conditions: 25 mM phosphate pH 7.5, isopropanol and Triton X-100, temperature not stated for kinetics
From the text: as §1

Protein	Km [µM]	kcat [s⁻¹]	kcat/Km [M⁻¹ s⁻¹]
B1	220.76 ± 3.14	13.2 ± 0.36	60000 ± 700
B2	328.61 ± 3.60	9.86 ± 0.35	30000 ± 500
B3	178.42 ± 1.61	16.1 ± 0.33	90000 ± 800

substrate: CC[C@H](/C=C/[C@@H](C)[C@H]1CC[C@H]2[C@@H]3CC=C4C[C@@H](O)CC[C@]4(C)[C@H]3CC[C@]12C)C(C)C; assay: as above; assay type: biochemical, Pimelobacter simplex; conditions: 25 mM phosphate pH 7.5, isopropanol and Triton X-100, temperature not stated for kinetics
From the text: as §1

Protein	Km [µM]	kcat [s⁻¹]	kcat/Km [M⁻¹ s⁻¹]
B1	528.84 ± 3.59	4.23 ± 0.19	8000 ± 200
B2	789.61 ± 4.71	1.58 ± 0.07	2000 ± 100
B3	384.12 ± 3.84	7.68 ± 0.27	20000 ± 200

substrate: CC(C)CCC[C@@H](C)[C@H]1CC[C@H]2[C@@H]3CC=C4C[C@@H](O)CC[C@]4(C)[C@H]3CC[C@]12C; assay: as above; assay type: biochemical, Pimelobacter simplex; conditions: 25 mM phosphate pH 7.5, isopropanol and Triton X-100, temperature not stated for kinetics
From the text: as §1

Protein	Km [µM]	kcat [s⁻¹]	kcat/Km [M⁻¹ s⁻¹]
B1	178.31 ± 1.38	23 ± 0.29	130000 ± 500
B2	204.85 ± 3.14	12.3 ± 0.32	60000 ± 300
B3	154.83 ± 3.31	15.5 ± 0.3	100000 ± 400

substrate: [H][C@@]12CC=C3C[C@@H](O)CC[C@]3(C)[C@@]1([H])CC[C@@]1(C)[C@@]2([H])CC[C@]1([H])C(C)=O; assay: as above; assay type: biochemical, Pimelobacter simplex; conditions: 25 mM phosphate pH 7.5, isopropanol and Triton X-100, temperature not stated for kinetics
From the text: as §1

Protein	Km [µM]	kcat [s⁻¹]	kcat/Km [M⁻¹ s⁻¹]
B1	228.42 ± 3.24	13.7 ± 0.31	60000 ± 600
B2	294.55 ± 2.97	11.8 ± 0.34	40000 ± 500
B3	190.61 ± 3.30	15.2 ± 0.22	80000 ± 400
